Assays:
Human FcγRIIB (human) = Human FcγRIIB (human) (UniProt P31994)
Human FcγRIIA (human) = Human FcγRIIA (human) (UniProt P12318)
Human FcγRIIIB (human) = Human FcγRIIIB (human) (UniProt O75015)
[1] = target: Human FcγRIIIA-F158 (human) (UniProt P08637)
Human FcRn (human) = Human FcRn (human) (UniProt P55899)
Human FcγRI (human) = Human FcγRI (human) (UniProt P12314)

- kon (Human FcγRIIB (human)): 124000 M⁻¹ s⁻¹
- kon (Human FcγRIIA (human)): 300000 M⁻¹ s⁻¹
- kon (Human FcγRIIIB (human)): 128000 M⁻¹ s⁻¹
- kon [1]: 880000 M⁻¹ s⁻¹
- kon (Human FcRn (human)): 1.98e+06 M⁻¹ s⁻¹
- kon (Human FcγRI (human)): 289000 M⁻¹ s⁻¹
Substance: control IgG (7101+7103) (antibody)

From patent US20240409659A1
